Reference: article PMC1557830

Key:
[1] = biological target: SIV transmembrane glycoprotein gp41 (SIVmneE11S), naturally truncated intra-viral domain of 17 amino acids, on virions (SIV (strain SIVmneE11S)) (UniProt P05885); assay: cryo-EM structure; cryo-electron tomography of vitrified intact SIVmneE11S virions; 2,986 spikes extracted, aligned and averaged with 3-fold symmetrisation; 28 Å (0.5 FSC); Env unliganded, in situ on the viral membrane
[2] = biological target: SIV surface glycoprotein gp120 (SIVmneE11S), on virions (SIV (strain SIVmneE11S)) (UniProt P05885); assay: as above

Substance	stoichiometry N [1]	stoichiometry N [2]
SIV transmembrane glycoprotein gp41 (SIVmneE11S), naturally truncated intra-viral domain of 17 amino acids, on virions (from UniProt P05885 529-882) (natural protein)	3	
SIV surface glycoprotein gp120 (SIVmneE11S), on virions (from UniProt P05885 23-528) (natural protein)		3
